The text below walks through data of patent US20220282217A1 (BIONTECH US, published 2022).

The target in the first assay is HLA-A02.01 (human). Kind of assay: competition vs radiolabeled reference peptide on purified MHC I, gel filtration. Here is the method: (§1) Peptides were incubated at varying concentrations with these complexes for 2 days, and the amount of remaining radiolabeled peptide bound to […] was measured using size exclusion gel-filtration.
ILIRKAMTV (also called EPHB2(-1)) came in with an IC50 of 19.5 nM. This counts as double-digit nanomolar. For the molecule MSVCFFFFSV (also called CNOT1(+1)), the IC50 is 1710 nM. Same read-out and setting: the figure for VQWRSLGSL (also called C15ORF40(+1)) is 4730 nM; for VLQRFRFTHV (also called β2M, . . ; SQIS) it is 107 nM; for ALFFFFFET (also called C15ORF40(+1)) it is 471 nM. On the same count and under the same terms, to FLSSWDYRRM (also called C15ORF40(+1)) belongs 324 nM; to GLSISCTTL (also called β2M, . . ; MPAV), 114 nM; to AQAGVQWRSL (also called C15ORF40(+1)), 670 nM. The same measure, in the same setting: to FKLFSCLSFL (also called C15ORF40(+1)) belongs 663 nM; to KQWSSVTSL (also called EIF2B3(-1)), 26.5 nM; to FFFSVIFST (also called CNOT1(+1)), 4560 nM. The molecule FFFETKSCSV (also called C15ORF40(+1)) returned a concentration for half-maximal inhibition (IC50) of 61.2 nM. The same measure, in the same setting: to SVCFFFFCYI (also called CNOT1(-1)) belongs 520 nM.

For another assay, the target named is T1, HLA class I molecule A02.01.
T1 construct: Purified MHC class I complex; also called HLA-A02:01
Kind of assay: competition with radiolabeled reference peptide on purified MHC I. Here is the method: as §1
Regarding CLIVSRTLLL (also called MSH3(-1)), the IC50 is 2010 nM. In turn, RLWHLLLQVT (also called MLL2, . . ; LSPH) returned an IC50 of 50.9 nM. For ALAPTLTHM (also called MLL2, . . ; LSPH), the IC50 was 59 nM. On the same count and under the same terms, the figure for ALWECSLPQA (also called MSH3(-1)) is 9 nM; for IVSRTLLLV (also called MSH3(-1)) it is 12.7 nM.

The molecule AIQPVLWTT (also called GATA3 . . ; CSNH) showed a concentration for half-maximal inhibition (IC50) of 8.1 nM. Still for that read-out and setting: the figure for LIVSRTLLLV (also called MSH3(-1)) is 10900 nM; for LLDILDTAGL (also called KRAS, Q61L) it is 716 nM; for RLWHLLLQV (also called MLL2, . . ; LSPH) it is 1.3 nM.

Turning to VLPEPHLAL (also called GATA3 . . ; CSNH), the IC50 came out at 16 nM. This IC50 is about 12-fold higher than that of the molecule before. Same read-out and setting: to FLLALWECS (also called MSH3(-1)) belongs 93.2 nM; to ALAPTLTHML (also called MLL2, . . ; LSPH), 39 nM; to LLPEDTPPL (also called MSH6(+1)), 2.8 nM. LQVTQTSFAL (also called MLL2, . . ; LSPH) returned an IC50 of 718 nM. The same measure, in the same setting: to LLQVTQTSFA (also called MLL2, . . ; LSPH) belongs 677 nM.
